The target in test [1] is T1, recombinant human matrilin-3 protein (human, UniProt O15232 29-486).
T1 construct: Bought from R&D Systems; It was biotinylated through an Avi tag for the library selection; also called human recombinant matrilin-3
T1 sequence: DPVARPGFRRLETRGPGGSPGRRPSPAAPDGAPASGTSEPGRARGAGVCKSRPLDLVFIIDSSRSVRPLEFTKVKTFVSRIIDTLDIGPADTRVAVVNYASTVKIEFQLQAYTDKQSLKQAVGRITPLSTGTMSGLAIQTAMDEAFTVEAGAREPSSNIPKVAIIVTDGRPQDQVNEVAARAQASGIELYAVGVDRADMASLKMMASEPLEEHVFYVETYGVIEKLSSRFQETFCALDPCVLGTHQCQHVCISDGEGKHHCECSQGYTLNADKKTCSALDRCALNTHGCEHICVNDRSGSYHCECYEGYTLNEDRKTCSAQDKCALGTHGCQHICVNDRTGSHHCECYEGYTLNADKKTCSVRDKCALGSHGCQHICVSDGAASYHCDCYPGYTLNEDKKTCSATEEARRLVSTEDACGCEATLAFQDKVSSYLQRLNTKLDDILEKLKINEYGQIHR
Briefly: ELISA, coated recombinant matrilin-3, purified scFv-Fc titrated 230 nM to 0.014 nM, HRP anti-Fc. A general note: In an ELISA, binding on a coated surface is turned into a signal by an enzyme label.

In test [2] the target is T2, recombinant mouse matrilin-3 protein (mouse, UniProt O35701 28-481, limits assumed).
T2 construct: also called mouse recombinant matrilin-3; His-Tagged recombinant mouse matrilin-3
T2 sequence (looked up): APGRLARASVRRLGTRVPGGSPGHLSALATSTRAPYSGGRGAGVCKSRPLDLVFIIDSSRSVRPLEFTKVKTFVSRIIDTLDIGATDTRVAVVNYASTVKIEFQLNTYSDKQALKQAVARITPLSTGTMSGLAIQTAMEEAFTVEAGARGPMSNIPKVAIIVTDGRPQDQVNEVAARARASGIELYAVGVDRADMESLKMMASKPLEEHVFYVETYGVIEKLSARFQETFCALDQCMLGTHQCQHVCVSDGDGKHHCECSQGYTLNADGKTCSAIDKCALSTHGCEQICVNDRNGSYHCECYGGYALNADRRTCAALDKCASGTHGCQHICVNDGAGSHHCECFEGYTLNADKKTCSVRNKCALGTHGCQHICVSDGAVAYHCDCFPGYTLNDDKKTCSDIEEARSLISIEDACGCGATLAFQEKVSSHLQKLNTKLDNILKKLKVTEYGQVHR
The description is as above.

These results are taken from US20160340418A1 (US Dept. of Health and Human Services, published 2016).

B1: matrilin-3-binding antibody fragment 13 (clone 13 scFv fused with human IgG1 Fc fragment) (Fc fusion)
scFv: LVQSGAEVKKPGASVKVSCKASGGTFSSYAISWVRQAPGQGLEWMGGIIPIFGTANYAQKFQGRVTITADKSTSTAYMELSSLRSEDTAVYYCARGQGYWFDPWGQGTLVTVSSGGGGSGGGASSGGGSDVQLTQSPSSLSASVGDRVTITCQASQDISNYLNWYQQKPGKAPKLLIYDASNLETGVPSRFSGSGSGTDFTFTISSLQPEDIATYYCQQYDNLPLTFGGGTKLEIK
notes: Tested as scFv-Fc (culture supernatant or protein A purified); not shown: human IgG1 Fc fragment encoded by the modified pSecTagB vector; Avi tag downstream of the Fc in the vector
The term EC50 denotes the concentration giving half of the maximal effect. On to B1, for which the EC50 in test [1] and in test [2] was less than 1 nM each time.

B2: matrilin-3-binding antibody fragment 22 (clone 22 scFv fused with human IgG1 Fc fragment) (Fc fusion)
scFv: LQQSGPGLVKPSQTLSLTCAISGDSVSSNSAAWNWIRQSPSRGLEWLGRTYYGSKWYNDYAPSVKSRISINPDTSKNQFSLQLNSVTPEDTAVYYCTRGIWNAFDIWGQGTMVTVSSGGGGSGGGASGGGGSSSELTQDPAVSVALGQTVRITCQGDSLRSYYASWYQQKPGQAPLLVIYDRDNRPSGIPDRFSGSSSGNTASLTITGAQAEDEADYYCQSYDTSLSWVFGGGTQLTVL
notes: Tested as scFv-Fc; not shown: human IgG1 Fc fragment encoded by the modified pSecTagB vector; Avi tag downstream of the Fc in the vector
Consider B2, for which the EC50 in test [1] and in test [2] was less than 1 nM each time.
